For the assay, the target named is Yeast Hsp90 wild-type FRET hetero-dimer (donor 61C + biotinylated acceptor 385C) (yeast | D. melanogaster).

B1: cochaperone Aha1 (natural protein)
chain: MVVNNPNNWHWVDKNCIGWAKEYFKQKLVGVEAGSVKDKKYAKIKSVSSIEGDCEVNQRKGKVISLFDLKITVLIEGHVDSKDGSALPFEGSINVPEVAFDSEASSYQFDISIFKETSELSEAKPLIRSELLPKLRQIFQQFGKDLLATHGNDIQVPESQVKSNYTRGNQKSSFTEIKDSASKPKKNALPSSTSTSAPVSSTNKVPQNGSGNSTSIYLEPTFNVPSSELYETFLDKQRILAWTRSAQFFNSGPKLETKEKFELFGGNVISELVSCEKDKKLVFHWKLKDWSAPFNSTIEMTFHESQEFHETKLQVKWTGIPVGEEDRVRANFEEYYVRSIKLTFGFGAVL
Take B1: the increase in ATPase activity of Hsp90 in the presence of 3 µM Aha1, normalised to the activity without Aha1 was determined as 17 fold.

These data come from article PMC7375816.
